Target: DivL DHp and CA domains fused to YFP (Caulobacter crescentus)
Assay: FRET or BRET

Sequence of DivL DHp and CA domains fused to YFP (Caulobacter crescentus) (Q9RQQ9 547-758): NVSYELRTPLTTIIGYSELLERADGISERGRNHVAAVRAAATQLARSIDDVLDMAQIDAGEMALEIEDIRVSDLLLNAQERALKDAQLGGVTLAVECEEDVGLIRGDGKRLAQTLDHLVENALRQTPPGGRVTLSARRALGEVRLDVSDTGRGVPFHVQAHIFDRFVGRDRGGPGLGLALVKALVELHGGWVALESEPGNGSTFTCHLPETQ

Substance: DivK~P-CFP (DivK-CFP phosphorylated by DivJ and ATP) (natural protein)
- FRET efficiency relative to the longer version of DivL: 85%

— article PMC3068846
